Data published in US12552866B2, “Internalizing binding molecules targeting receptors involved in cell proliferation or in cell differentiation” (LinXis B.V., priority 2019, dated 2026).
Where two headings read alike, the source gives them in different places.

Columns and labels:
[1] = tested on: primary activated rat hepatic stellate cells (HSCs); assay: Binding (staining) to primary activated rat hepatic stellate cells; assay type: cell-based; conditions: 50 nM, HSCs from BDL rat, 6 days in culture
Experimental: The cross-reactivity of F11-E8-ABD was further evaluated in binding experiments to primary activated rat hepatic stellate cells (HSCs) by conjugating the construct to Alexa Fluor 488 (FE-A-A488, conjugation method as described in example 9.2). Activated HSCs were obtained from a perfused liver of a cirrhotic bile duct ligated (BDL) rat, the HSCs were isolated using density gradient centrifugation. Cells were kept in culture for 6 days to allow complete activation and then stained with 50 nM FE-A-A488. Activation was determined by an additional staining with alpha-smooth muscle actin (a-SMA).

[2] = tested on: NIH 3T3 2.2 cells transiently transfected with hIGF2R; assay: Internalization in NIH 3T3 2.2 cells transiently transfected with hIGF2R; assay type: cell-based, human; conditions: 25 nM VHH conjugated to Alexa Fluor 647
Experimental: (§1) To assess if monovalent 13F11 and biparatopic 13F11-13E8 are internalized in the hIGF2R expressing cells, A549 cells (FIG. 16A) and NIH 3T3 2.2 cells transiently transfected with hIGF2R (FIG. 16B) were incubated with 25 nM VHH conjugated to Alexa Fluor 647 (conjugation method as described in example 9.2). A Mouse anti-IGF2R mAb was included to detect IGF2R expression on the hIGF2R transfected cells NIH 3T3 2.2 (FIG. 16B, right column), the mAb was detected with a goat anti-mouse mAb conjugated to Alexa Fluor 555. Additionally, mock transfected NIH 3T3 2.2 cells were incubated with 13F11 and 13F11-13E8 (FIG. 16C). […]
(§2) (FIG. 10D). […] The rate of internalization (endocytic rate constant, ke) of biparatopic constructs 13F11-13E8 and 13E8-13F11 was determined with a kinetic internalization assay on SCC-VII cells transfected with hIGF2R and rIGF2R. […] Subsequently, cells were washed with cold PBS and the non-internalized VHH construct (bound fraction) was separated from the internalized construct (internalized fraction) using an acid-wash, as described above, after which the fluorescence of both fractions were measured. […] Internalization was also observed in rIGF2R expressing SCC cells as a clear increase in fluorescence over time can be shown in FIG. 17 (ke around 0.7 min-1).

[3] = tested on: mock transfected NIH 3T3 2.2 cells; assay: Internalization in mock transfected NIH 3T3 2.2 cells; assay type: cell-based; conditions: 25 nM VHH conjugated to Alexa Fluor 647
Experimental: as §1, §2

[4] = biological target: T1, hIGF2R-ECD (Homo sapiens, UniProt P11717); assay: Binding assay / titration ELISA on recombinant hIGF2R-ECD; conditions: KD+SEM, n=2, read-out: calculated affinity (KD)
T1 construct: recombinant human extracellular domain of IGF2R (hIGF2R-ECD)
Experimental: The 15 unique hIGF2R binders (Example 1.1, FIG. 2) were produced and purified as described in examples 2 and 3. The apparent affinities were determined with binding assays on hIGF2R-ECD. Briefly, three-fold serial VHH dilutions, starting from 1 μM, were added onto hIGF2R-ECD coated plates. After 2 hours of incubation, plates were washed and bound VHH was detected using a VHH-specific IgG antibody, followed by an IRD800CW-conjugated IgG-specific antibody. […] VHH 13F11 was also produced with a C-terminal free cysteine and conjugated using maleimide chemistry to Alexa Fluor 647 (13F11-A647 in FIG. 8A, conjugation method as described in example 9.2). A titration ELISA (direct read out at 647 nm) with this construct was carried out on hIGF2R-ECD to determine whether the affinity was affected after site directed conjugation (FIG. 8B). The KD and Bmax were calculated in Graphpad (version 8.3), using one-site specific binding analysis (FIG. 8C).
Based on their high affinity and binding to non-overlapping receptor epitopes, VHHs 13F11 and 13E8 were selected for the design of biparatopic and bivalent VHH constructs. Two VHHs were fused with a flexible linker, consisting of three Gly-Gly-Gly-Gly-Ser repeats (FIG. 8A). The sequences were codon optimized for expression in E. coli and obtained as synthesized DNA fragments from GeneArt. The DNA fragments encoding VHHs were cloned into a vector pET28-based vector introducing a C-terminal free cysteine for site-directed conjugation and His6 tag for IMAC purification (FIG. 8A). The constructs were produced and purified as described in example 3. The constructs were conjugated to Alexa Fluor 647 (conjugation method as described in example 9.2) and titration ELISAs on recombinant hIGF2R-ECD (as described in example 4.1) were performed to determine the KD and Bmax (calculated in Graphpad (version 8.3), using one-site specific binding analysis) (FIG. 8C).
Next, 13F11-13E8 was genetically re-engineered to include an in vivo half-life extender in the form of an albumin binding domain (ABD) as described by Johansson et al (Structure, specificity, and mode of interaction for bacterial albumin-binding modules, J. Biol. Chem. 2002 (277): 8114-8120) and subsequently produced and purified as described in Example 3. Subsequently, 13F11-13E8-ABD was conjugated to IRDye800CW (F11E8-ABD-IRD800, conjugation method as described in example 9.2) and the binding affinities of the biparatopic VHH as well as the ABD unit was determined. […] The binding affinity (KD) of F11-E8-ABD-IRD800 to rat serum albumin (RSA) was 30 nM and to mouse serum albumin (MSA) and human serum albumin (HSA) the binding affinity was approximately 200 nM.

[5] = tested on: A549 cells (IGF2R positive); assay: Internalization in A549 cells (acid wash, confocal); assay type: cell-based, human; conditions: 25 nM VHH conjugated to Alexa Fluor 647
Experimental: as §1, §2

[6] = biological target: rat PDGFRB ectodomain (ECD); assay: Affinity (KD in nM) | PDGFRβ ECD
Experimental: (§3) Table printed on a drawing sheet, FIG. 6
Head of the field: Affinity (KD in nM) | PDGFRβ ECD
(§4) The patent's description of the figure: FIG. 6. Amino acid sequence of rat PDGFRB VHHs (CDRs underlined). Affinities are measured on rat PDGFRB ectodomain (ECD) and squamous cell carcinoma cells transfected with rat PDGFRB receptor (SCC-rPDGFRB). Data of the competition assays is included to categorize the VHHs in different epitope groups.
(§5) First copying reader's note: Each sequence is printed over two lines and joined here by a blank; the underlining that marks the CDRs is not reproduced.
Where the first naming reader finds the target: description_of_the_figure: Affinities are measured on rat PDGFRB ectodomain (ECD) and squamous cell carcinoma cells transfected with rat PDGFRB receptor (SCC-rPDGFRB).

[7] = biological target: T2, rat PDGFRB receptor (Rattus norvegicus, UniProt Q05030); assay: Affinity (KD in nM) | SCC-rPDGFRβ cells
T2 construct: GFP; expressed in transfected cells; host or cells: SCC VII cells
Experimental: as §3
Head of the field: Affinity (KD in nM) | SCC-rPDGFRβ cells
as §4, §5
Where the first naming reader finds the target: description_of_the_figure: squamous cell carcinoma cells transfected with rat PDGFRB receptor (SCC-rPDGFRB)

[8] = biological target: T3, PDGFRB ECD (Homo sapiens, UniProt P09619); assay: Competition ELISA with SP02P and SP26P on PDGFRB ECD; assay type: binding; conditions: versus SPO2P
T3 construct: assay with SP02P and SP26P on PDGFRB ECD
T3 sequence (P09619 33-532): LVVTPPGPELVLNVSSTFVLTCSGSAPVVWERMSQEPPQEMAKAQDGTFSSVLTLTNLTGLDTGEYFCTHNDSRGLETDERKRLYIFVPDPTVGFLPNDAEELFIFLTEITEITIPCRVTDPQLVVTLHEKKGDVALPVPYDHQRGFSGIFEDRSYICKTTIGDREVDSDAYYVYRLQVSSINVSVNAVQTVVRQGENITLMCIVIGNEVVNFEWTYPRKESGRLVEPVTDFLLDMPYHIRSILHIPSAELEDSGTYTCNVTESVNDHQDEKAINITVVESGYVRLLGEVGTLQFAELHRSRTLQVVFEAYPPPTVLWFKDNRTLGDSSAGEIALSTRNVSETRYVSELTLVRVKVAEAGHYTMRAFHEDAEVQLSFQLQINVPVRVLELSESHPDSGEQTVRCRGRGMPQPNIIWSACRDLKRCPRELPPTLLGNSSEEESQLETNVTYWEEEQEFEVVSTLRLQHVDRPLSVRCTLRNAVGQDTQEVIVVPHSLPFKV
Experimental: Competition ELISAs were carried out to determine whether the hPDGFRB specific binders (FIG. 5) and rPDGFRB specific binders (FIG. 6) recognize distinct epitopes on hPDGFRB or rPDGFRB, respectively. The hPDGFRB binding VHHs SPO2P, SP05P, SP12P and SP14P and the rPDGFRB binder SP26P were conjugated to IRDye800CW (VHH-IRDye800CW, conjugation method as described in example 9.2) and each conjugated VHH was mixed with unconjugated competitor in trifold serial dilutions and incubated on immobilized […]. Two VHHs share (part of) the same epitope when the fluorescence signal of the VHH-IRDye800CW decreases upon increasing concentration of unconjugated VHH. Furthermore, using a similar method as described in section 5.1, binding epitope competition between the hPDGFRB binding VHH SPO2P and rPDGFRB binding VHH

[9] = biological target: T4, hPDGFRB (Homo sapiens, UniProt P09619); assay: Binding assay on SCC VII cells transfected with hPDGFRB; conditions: relative to rPDGFRB
T4 construct: GFP; expressed in transfected cells; host or cells: SCC VII cells
T4 sequence (P09619 33-1106): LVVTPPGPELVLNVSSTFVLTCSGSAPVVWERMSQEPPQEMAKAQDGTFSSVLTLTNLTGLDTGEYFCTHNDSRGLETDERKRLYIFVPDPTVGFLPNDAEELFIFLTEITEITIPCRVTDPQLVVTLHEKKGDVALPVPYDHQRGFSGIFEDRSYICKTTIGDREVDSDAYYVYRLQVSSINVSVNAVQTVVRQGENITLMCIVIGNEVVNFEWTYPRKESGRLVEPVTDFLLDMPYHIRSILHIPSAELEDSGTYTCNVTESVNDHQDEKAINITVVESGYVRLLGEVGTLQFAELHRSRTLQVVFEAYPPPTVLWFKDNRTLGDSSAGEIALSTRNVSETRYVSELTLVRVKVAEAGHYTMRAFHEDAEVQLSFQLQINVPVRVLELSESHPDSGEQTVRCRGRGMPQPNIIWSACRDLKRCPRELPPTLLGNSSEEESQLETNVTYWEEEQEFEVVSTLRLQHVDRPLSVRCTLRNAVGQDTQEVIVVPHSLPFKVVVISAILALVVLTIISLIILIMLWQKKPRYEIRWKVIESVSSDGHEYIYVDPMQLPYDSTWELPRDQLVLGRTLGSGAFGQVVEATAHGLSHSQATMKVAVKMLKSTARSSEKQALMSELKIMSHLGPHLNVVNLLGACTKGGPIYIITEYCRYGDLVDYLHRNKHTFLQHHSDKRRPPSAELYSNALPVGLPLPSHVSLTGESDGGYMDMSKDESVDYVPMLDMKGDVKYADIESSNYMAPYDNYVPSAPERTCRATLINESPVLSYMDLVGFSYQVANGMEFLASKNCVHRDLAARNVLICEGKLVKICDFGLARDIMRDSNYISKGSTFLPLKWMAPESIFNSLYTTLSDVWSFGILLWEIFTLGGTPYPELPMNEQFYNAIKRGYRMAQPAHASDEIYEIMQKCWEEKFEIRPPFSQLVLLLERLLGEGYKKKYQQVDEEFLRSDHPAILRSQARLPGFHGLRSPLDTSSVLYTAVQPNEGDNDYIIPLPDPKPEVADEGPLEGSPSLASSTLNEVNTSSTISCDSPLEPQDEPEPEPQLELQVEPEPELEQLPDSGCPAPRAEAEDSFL
Experimental: (§6) Based on their high affinity and binding to non-overlapping hPDGRB epitopes, VHHs SPO2P, SP12P SP14P and SP26P were selected for the design of biparatopic VHH constructs and produced in a similar way as described in example 6.1. (FIG. 15A). The binding affinities of the biparatopic constructs were determined with an ELISA assay with the periplasm (FIG. 15A). Moreover, based on their high affinity and binding to non-overlapping rPDGRB epitopes, VHHs SP26P and SP28P were selected for the design of a biparatopic VHH construct and produced in a similar way as described in example 6.1. The formed biparatopic SP28P-SP26P was conjugated to IRDye800CW (SP28P-SP26P-IRDye800CW conjugation method as described in example 9.2) and subjected to a binding assay SCC VII cells transfected with hPDGFRB, rPDGFRB or hIGF2R were performed (FIG. 15B). […] In order to create a biparatopic VHH construct which is cross-reactive for hPDGFRB and rPDGFRB, VHH SPO2P binding to hPDGFRB and VHH SPO26P binding to rPDGFRB were selected and the biparatopic construct SPO2P-SP26P was produced in a similar way as described in example 6.1. (FIG. 15C). Construct SPO2P-SP26P was conjugated to IRDye800CW (SP02P-SP26P-IRDye800CW, conjugation method as described in example 9.2) and subjected to bindings assays on SCC VII cells transfected with hPDGFRB, rPDGFRB or hIGF2R were performed (FIG. 15C). […]

[10] = biological target: T5, rPDGFRB (Rattus norvegicus, UniProt Q05030); assay: Binding assay on SCC VII cells transfected with rPDGFRB; conditions: IRDye800CW conjugate, read-out: binding affinity (KD) to rPDGFRB
T5 construct: GFP; expressed in transfected cells; host or cells: SCC VII cells
T5 sequence (Q05030 32-1097): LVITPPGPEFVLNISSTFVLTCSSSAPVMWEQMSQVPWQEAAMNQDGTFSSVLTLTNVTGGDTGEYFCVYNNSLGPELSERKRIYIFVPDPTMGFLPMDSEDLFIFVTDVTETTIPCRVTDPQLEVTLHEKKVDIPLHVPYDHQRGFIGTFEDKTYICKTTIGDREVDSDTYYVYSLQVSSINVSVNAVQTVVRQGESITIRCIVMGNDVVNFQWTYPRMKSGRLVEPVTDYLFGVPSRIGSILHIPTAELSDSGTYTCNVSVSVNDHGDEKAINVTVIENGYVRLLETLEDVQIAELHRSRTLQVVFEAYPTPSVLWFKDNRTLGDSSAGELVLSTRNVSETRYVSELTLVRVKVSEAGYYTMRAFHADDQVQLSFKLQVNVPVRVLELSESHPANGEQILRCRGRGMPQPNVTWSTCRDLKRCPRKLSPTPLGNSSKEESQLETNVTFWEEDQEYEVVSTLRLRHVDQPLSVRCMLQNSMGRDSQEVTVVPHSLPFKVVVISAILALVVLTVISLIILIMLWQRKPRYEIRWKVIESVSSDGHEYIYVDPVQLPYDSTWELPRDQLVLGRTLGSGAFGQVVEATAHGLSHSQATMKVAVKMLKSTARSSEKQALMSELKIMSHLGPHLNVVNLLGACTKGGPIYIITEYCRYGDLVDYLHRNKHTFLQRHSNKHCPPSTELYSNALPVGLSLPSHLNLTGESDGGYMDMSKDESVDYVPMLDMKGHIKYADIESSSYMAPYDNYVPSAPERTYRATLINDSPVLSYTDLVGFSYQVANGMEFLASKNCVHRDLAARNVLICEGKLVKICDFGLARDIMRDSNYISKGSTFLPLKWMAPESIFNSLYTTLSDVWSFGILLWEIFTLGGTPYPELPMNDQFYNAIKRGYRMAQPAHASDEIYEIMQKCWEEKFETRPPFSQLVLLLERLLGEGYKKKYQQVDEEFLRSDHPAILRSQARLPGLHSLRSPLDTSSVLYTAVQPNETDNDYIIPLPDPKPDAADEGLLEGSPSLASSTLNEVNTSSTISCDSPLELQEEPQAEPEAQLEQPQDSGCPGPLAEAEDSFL
Experimental: as §6

B1: FE-A-A488: 13F11-13E8-ABD conjugated to Alexa Fluor 488 (conjugate)
chain: EVQLVESGGRLVQPGDSLRLSCAASGRTFSDNAMGWFRQAPGKERRFVAGISWAGGSTYYSDSVKGRFTISRDNAKNTVYLQMNSLKPEDTAVYYCAAGLRAWVQRMPKDYNYWGQGTQVTVSSGGGGSGGGGSGGGGSEVQLVESGGGLVQAGGSLRLSCAASRSISPMGWYRQAPGKQRELVAIMPSSGPPIYADSVQGRFTISRDNAKNTVYLQMNSLKPEDTAVYYCNVGGGYWGQGTQVTVSS
modifications: left off: large carriers; small tags and cut ends
binding to activated rat HSCs [1]: binds to rat HSCs

B2: 13F11: VHH targeting IGF2R, SEQ ID NO: 273 (protein, listed as Lama glama)
VHH: EVQLVESGGRLVQPGDSLRLSCAASGRTFSDNAMGWFRQAPGKERRFVAGISWAGGSTYYSDSVKGRFTISRDNAKNTVYLQMNSLKPEDTAVYYCAAGLRAWVQRMPKDYNYWGQGTQVTVSS
internalization in hIGF2R transfected NIH 3T3 2.2 cells [2]: did internalise
internalization in mock transfected NIH 3T3 2.2 cells [3]: did not internalize
Kd ([4]; construct conjugated to Alexa Fluor 647, direct read out): 1 ± 0.61 nM
Kd ([4]; unconjugated VHH, one-site specific binding): 0.23 ± 0.05 nM
internalization in A549 cells [5]: no internalization was observed

B3: SP26P: rPDGFRB binding VHH, SEQ ID NO: 153 (protein, listed as Lama glama)
VHH: EVQLVESGGGLVQAGGSLRLSCAASGRSFSSSVMGWFRQTPGKEREFVAATRWTAASTHYADSVKGRFTISRDHAENAVFLQMNSLKPEDTAVYYCAAGNYLDTAQYRYNYWGQGTQVTVSS
Kd [6]: 5.1 nM
Kd [7]: 0.3 nM
binding epitope competition between SPO2P and SP26P [8]: No competition

B4: SP28P-SP26P-IRDye800CW: biparatopic SP28P-SP26P conjugated to IRDye800CW (conjugate)
chain: EVQLVESGGGLVQAGGSLRLSCAASGSIVSFNGINWYRQAPGKQREWVGGITQGGNTMYADSVRGRFTISRDNTKNTMYLQMNSLKPEDTAVYYCRRPPVASWGQGTQVTVSSGGGGSGGGGSGGGGSEVQLVESGGGLVQAGGSLRLSCAASGRSFSSSVMGWFRQTPGKEREFVAATRWTAASTHYADSVKGRFTISRDHAENAVFLQMNSLKPEDTAVYYCAAGNYLDTAQYRYNYWGQGTQVTVSS
modifications: left off: small tags and cut ends
binding affinity to hPDGFRB [9]: a few orders of magnitude lower
Kd [10]: < 1 nM
